Values quoted from earlier work in publication PMC9585055.

Molecular target: cellular prion protein PrPC (Homo sapiens) (UniProt P04156)

tissue-type plasminogen activator (from UniProt P00750)
Kd: 2.5 nM
